One test has as its target HLA-A*01:01. As to the kind of experiment: IEDB peptide-MHC binding, purified MHC/direct/fluorescence; filed as Kd, often an IC50 or EC50 that approximates it; ≥ and ≤ were set here for values at or beyond the usual limits of such assays.
Test [1] has as its target HLA-A*02:01. The test is described as above.
A further test addresses HLA-A*03:01. Described as above.
The target of test [2] is HLA-A*11:01. The test is described as above.
Test [3] deals with HLA-A*26:02. The test is described as above.
The target in a further test is HLA-A*26:03. The test is described as above.
The target in another test is HLA-A*31:01. Described as above.
Another test addresses HLA-A*68:02. The description is as above.
For the next test, the target named is HLA-A*69:01. The description is as above.
Test [4] deals with HLA-B*07:02. The test is described as above.
Test [5] addresses HLA-B*08:01. The description is as above.
The next test concerns the target HLA-B*08:03. Described as above.
Test [6] has as its target HLA-B*15:01. The test is described as above.
Test [7] addresses HLA-B*18:01. The description is as above.
For another test, the target named is HLA-B*27:05. The test is described as above.
For another test, the target named is HLA-B*40:01. The test is described as above.
In a further test the target is HLA-B*46:01. The description is as above.
The target in another test is HLA-B*48:01. The description is as above.
A further test addresses HLA-B*57:01. The test is described as above.
Another test deals with HLA-B*58:01. Described as above.
Test [8] deals with HLA-B*15:17. As to the kind of experiment: IEDB peptide-MHC binding, purified MHC/competitive/fluorescence; filed as Kd, often an IC50 or EC50 that approximates it; ≥ and ≤ were set here for values at or beyond the usual limits of such assays. The conditions noted are these: source organism: Vaccinia virus WR.
A further test concerns the target HLA-A*23:01. Briefly: IEDB peptide-MHC binding, purified MHC/direct/fluorescence; filed as Kd, often an IC50 or EC50 that approximates it; ≥ and ≤ were set here for values at or beyond the usual limits of such assays. The conditions noted are these: source organism: Vibrio vulnificus YJ016.
Another test addresses HLA-A*24:03. The test is described as above. The conditions noted are these: source organism: Vibrio vulnificus YJ016.
For a further test, the target named is HLA-A*26:01. The test is described as above. The following applies: source organism: Vibrio vulnificus CMCP6.
In a further test the target is HLA-B*15:09. The description is as above. The following applies: source organism: Vibrio vulnificus CMCP6.
Test [9] deals with HLA-B*15:17. The test is described as above.
In the next test the target is HLA-A*02:06. Briefly: IEDB peptide-MHC binding, purified MHC/competitive/fluorescence; filed as Kd, often an IC50 or EC50 that approximates it; ≥ and ≤ were set here for values at or beyond the usual limits of such assays.
Test [10] addresses HLA-B*18:01. Described as above. The following applies: source organism: Vibrio vulnificus YJ016.
Another test addresses HLA-A*02:11. As to the kind of experiment: IEDB peptide-MHC binding, purified MHC/direct/fluorescence; filed as Kd, often an IC50 or EC50 that approximates it; ≥ and ≤ were set here for values at or beyond the usual limits of such assays. The conditions noted are these: source organism: Salmonella enterica subsp. enterica serovar Typhimurium str. LT2.
In the next test the target is HLA-A*02:19. Described as above. The conditions noted are these: source organism: Salmonella enterica subsp. enterica serovar Typhimurium str. LT2.
In test [11] the target is HLA-A*26:02. As to the kind of experiment: IEDB peptide-MHC binding, purified MHC/competitive/fluorescence; filed as Kd, often an IC50 or EC50 that approximates it; ≥ and ≤ were set here for values at or beyond the usual limits of such assays. The conditions noted are these: source organism: Salmonella enterica subsp. enterica serovar Enteritidis.
Test [12] has as its target HLA-A*02:01. Briefly: IEDB peptide-MHC binding, purified MHC/competitive/fluorescence; ≥ and ≤ were set here for values at or beyond the usual limits of such assays. The conditions noted are these: source organism: Zaire ebolavirus.
Test [13] deals with HLA-A*11:01. The description is as above. The conditions noted are these: source organism: Zaire ebolavirus.
The next test deals with HLA-A*24:02. Described as above. The following applies: source organism: Zaire ebolavirus.
The target in test [14] is HLA-B*07:02. The description is as above. The conditions noted are these: source organism: Zaire ebolavirus.
In test [15] the target is HLA-B*08:01. The test is described as above. The conditions noted are these: source organism: Zaire ebolavirus.
Test [16] addresses HLA-B*15:01. Described as above. The following applies: source organism: Zaire ebolavirus.
Setting [17] is: source organism: Camelpox virus M-96.
[18] abbreviates: source organism: Vibrio vulnificus YJ016.
[19] abbreviates: source organism: Vibrio vulnificus CMCP6.
[20] abbreviates: source organism: Vibrio cholerae.
Where [21] appears, read: source organism: Salmonella enterica.

In general, Kd refers to the free concentration of one partner at which half of the binding sites on the other are occupied at equilibrium, for simple one-to-one binding. A low value points to tighter binding. In the case of ATNDGLIKK, the Kd was no less than 20 µM with HLA-A*01:01 (setting [17]); no less than 20 µM with HLA-A*02:01 [1] (setting [17]); 1.46 µM with HLA-A*03:01 (setting [17]); 0.01 µM in the test with HLA-A*11:01 [2] (setting [17]); no less than 20 µM with HLA-A*26:02 [3] (source organism: Variola virus); no less than 20 µM in the test with HLA-A*26:03 (source organism: Variola virus). For the same sequence, the Kd in the test with HLA-A*31:01 (setting [17]) was 0.119 µM; in the test with HLA-A*68:02 (setting [17]), no less than 20 µM; with HLA-A*69:01 (setting [17]), no less than 20 µM; with HLA-B*07:02 [4] (setting [17]), no less than 20 µM; in the test with HLA-B*08:01 [5] (source organism: Variola virus) it was no less than 20 µM; in the test with HLA-B*08:03 (source organism: Variola virus) it was no less than 20 µM. Moreover, the Kd with HLA-B*15:01 [6] (setting [17]), with HLA-B*18:01 [7] (setting [17]), with HLA-B*27:05 (setting [17]), in the test with HLA-B*40:01 (setting [17]), with HLA-B*46:01 (setting [17]) and with HLA-B*48:01 (setting [17]) was no less than 20 µM throughout. The values for the Kd with HLA-B*57:01 (setting [17]), with HLA-B*58:01 (setting [17]) and with HLA-B*15:17 [8] were no less than 20 µM, 9 µM and no less than 20 µM, respectively.

Consider GWPDNYCEW, for which the Kd is no less than 20 µM with HLA-A*01:01 (setting [18]); no less than 20 µM with HLA-A*02:01 [1] (setting [18]); no less than 20 µM with HLA-A*11:01 [2] (setting [18]); 0.225 µM with HLA-A*23:01; 0.0067 µM in the test with HLA-A*24:03; no less than 20 µM with HLA-A*26:01. Moreover, the Kd in the test with HLA-A*31:01 (setting [18]), in the test with HLA-A*68:02 (setting [18]), with HLA-A*69:01 (setting [18]), with HLA-B*07:02 [4] (setting [18]), with HLA-B*08:01 [5] (setting [19]) and with HLA-B*08:03 (setting [19]) was no less than 20 µM in each case. The Kd with HLA-B*15:01 [6] (setting [18]) is no less than 20 µM; with HLA-B*15:09 it was no less than 20 µM; with HLA-B*15:17 [9] (setting [18]), no less than 20 µM; in the test with HLA-B*57:01 (setting [18]) it was no less than 20 µM; in the test with HLA-B*58:01 (setting [18]) it was no less than 20 µM; with HLA-A*02:06 (setting [18]), 2.17 µM. In the test with HLA-B*18:01 [10], this sequence yielded a Kd of 2.29 µM.

With KGHLPLLDK, the Kd with HLA-A*01:01 (setting [20]) is no less than 20 µM; with HLA-A*02:01 [1] (setting [20]), no less than 20 µM; with HLA-A*03:01 (setting [20]) it was 0.0555 µM; in the test with HLA-A*26:02 [3] (setting [19]), no less than 20 µM; with HLA-A*26:03 (setting [19]), no less than 20 µM; in the test with HLA-A*31:01 (setting [20]), 3.98 µM. The equilibrium dissociation constant (Kd) with HLA-A*68:02 (setting [20]), in the test with HLA-A*69:01 (setting [20]), in the test with HLA-B*07:02 [4] (setting [20]), with HLA-B*08:01 [5] (setting [19]), with HLA-B*08:03 (setting [19]) and with HLA-B*15:01 [6] (setting [20]) was no less than 20 µM in each case. In addition, the Kd in the test with HLA-B*15:17 [9] (setting [20]), with HLA-B*27:05 (setting [20]), in the test with HLA-B*40:01 (setting [20]), with HLA-B*46:01 (setting [20]), in the test with HLA-B*48:01 (setting [20]) and in the test with HLA-B*57:01 (setting [20]) was no less than 20 µM in each case. The sequence further displayed a Kd with HLA-B*58:01 (setting [20]) of no less than 20 µM.

In the case of MGKTITDVK, the Kd is no less than 20 µM with HLA-A*01:01 (setting [21]); no less than 20 µM in the test with HLA-A*02:01 [1] (setting [21]); no less than 20 µM with HLA-A*02:11; 6 µM with HLA-A*02:19; no less than 20 µM with HLA-A*03:01 (setting [21]); 0.42 µM in the test with HLA-A*11:01 [2] (setting [21]). The Kd was 1.57 µM with HLA-A*31:01 (setting [21]); no less than 20 µM in the test with HLA-A*68:02 (setting [21]); no less than 20 µM with HLA-B*07:02 [4] (setting [21]); no less than 20 µM with HLA-B*08:03 (source organism: Salmonella enterica subsp. enterica serovar Typhimurium str. LT2); no less than 20 µM with HLA-B*15:01 [6] (setting [21]); no less than 20 µM with HLA-B*15:17 [9] (setting [21]). The Kd with HLA-B*18:01 [7] (setting [21]), with HLA-B*27:05 (setting [21]), with HLA-B*40:01 (setting [21]), with HLA-B*46:01 (setting [21]), with HLA-B*48:01 (setting [21]) and in the test with HLA-B*57:01 (setting [21]) was no less than 20 µM each time. Also, the Kd is no less than 20 µM with HLA-B*58:01 (setting [21]), 0.289 µM in the test with HLA-A*02:06 (source organism: Salmonella enterica subsp. enterica serovar Enteritidis) and 2.74 µM with HLA-A*26:02 [11].

Usually IC50 stands for the concentration that inhibits the measured activity by half. Read a high IC50 as a need for much substance. Take TIHHASAPL: the IC50 in the test with HLA-A*02:01 [12] was 5.58 µM; with HLA-A*11:01 [13] it was no less than 85 µM; with HLA-A*24:02 it was 46.9 µM; in the test with HLA-B*07:02 [14], 14.7 µM; with HLA-B*08:01 [15], no less than 126 µM; in the test with HLA-B*15:01 [16] it was 14.4 µM.

For the origin of these results see the Immune Epitope Database (IEDB).
